According to patent US20250197491A1 (MACOMICS, published 2025):
One block for each binder: values may come before it.

What was measured:
[1] = biological target: T1, Human LILRB1 (D1-D2) fused to mouse IgG2a Fc (human); experiment: summary table (ELISA); N = No
T1 construct: also called truncated (D1-D2) version of the LILRB1 ecto-domain

[2] = biological target: T2, Rhesus monkey (Macaca mulatta) LILRB ectodomain fused to mIgG2a Fc (rhesus monkey (Macaca mulatta)); experiment: summary table (ELISA); Rhesus & Cyno LILRB1/2 binding; Y = Yes
T2 construct: also called rhesus LILRB-mIgG2a; rhesus LILRB protein
T2 sequence (chain, as listed by the source limits assumed): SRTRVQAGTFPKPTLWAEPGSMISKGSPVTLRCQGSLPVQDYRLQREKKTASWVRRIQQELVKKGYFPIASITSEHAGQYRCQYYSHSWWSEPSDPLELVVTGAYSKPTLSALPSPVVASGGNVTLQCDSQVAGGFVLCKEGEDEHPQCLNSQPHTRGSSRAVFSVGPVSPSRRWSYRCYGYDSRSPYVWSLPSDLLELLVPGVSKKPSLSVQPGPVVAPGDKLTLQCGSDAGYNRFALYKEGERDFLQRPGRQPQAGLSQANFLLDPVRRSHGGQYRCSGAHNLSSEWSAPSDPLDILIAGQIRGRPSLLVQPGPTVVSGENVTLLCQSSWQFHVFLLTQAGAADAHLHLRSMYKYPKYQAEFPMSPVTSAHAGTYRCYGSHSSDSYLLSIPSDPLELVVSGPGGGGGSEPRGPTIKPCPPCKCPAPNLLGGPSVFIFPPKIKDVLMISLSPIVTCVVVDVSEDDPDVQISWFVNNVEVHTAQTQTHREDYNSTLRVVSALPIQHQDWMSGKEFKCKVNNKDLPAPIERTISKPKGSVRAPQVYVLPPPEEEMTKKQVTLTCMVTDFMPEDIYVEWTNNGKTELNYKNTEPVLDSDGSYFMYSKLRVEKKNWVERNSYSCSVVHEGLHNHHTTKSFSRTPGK

[3] = biological target: T3, Cynomolgus monkey (Macaca fascicularis) LILRB ectodomain fused to mIgG2a (cynomolgus monkey (Macaca fascicularis)); experiment: as above
T3 construct: also called cynomolgus LILRB protein
T3 sequence (chain, as listed by the source limits assumed): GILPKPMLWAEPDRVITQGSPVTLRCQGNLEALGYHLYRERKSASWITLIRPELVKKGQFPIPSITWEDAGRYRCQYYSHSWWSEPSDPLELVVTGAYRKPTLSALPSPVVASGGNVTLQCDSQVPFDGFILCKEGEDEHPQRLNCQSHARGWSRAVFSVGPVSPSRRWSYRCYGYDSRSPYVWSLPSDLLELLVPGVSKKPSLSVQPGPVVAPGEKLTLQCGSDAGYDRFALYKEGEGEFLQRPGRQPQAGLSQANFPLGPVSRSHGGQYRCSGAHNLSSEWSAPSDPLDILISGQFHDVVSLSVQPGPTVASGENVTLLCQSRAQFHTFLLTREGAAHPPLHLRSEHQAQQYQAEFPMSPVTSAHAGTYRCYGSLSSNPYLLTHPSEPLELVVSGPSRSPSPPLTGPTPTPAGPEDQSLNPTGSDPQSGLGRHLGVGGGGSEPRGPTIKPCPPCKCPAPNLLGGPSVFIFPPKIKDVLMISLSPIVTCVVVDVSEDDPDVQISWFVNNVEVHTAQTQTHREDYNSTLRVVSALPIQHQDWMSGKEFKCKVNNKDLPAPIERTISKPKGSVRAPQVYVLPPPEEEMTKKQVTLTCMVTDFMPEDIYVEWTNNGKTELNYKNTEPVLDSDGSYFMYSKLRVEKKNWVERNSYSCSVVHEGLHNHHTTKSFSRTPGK

[4] = biological target: LILRB2 recombinant, full-length ectodomain (LILRB2 22-458) (human, UniProt Q8N423 22-458); experiment: multi-point ELISA, antigen coated, apparent EC50
Sequence of LILRB2 recombinant, full-length ectodomain (LILRB2 22-458) (Q8N423 22-458): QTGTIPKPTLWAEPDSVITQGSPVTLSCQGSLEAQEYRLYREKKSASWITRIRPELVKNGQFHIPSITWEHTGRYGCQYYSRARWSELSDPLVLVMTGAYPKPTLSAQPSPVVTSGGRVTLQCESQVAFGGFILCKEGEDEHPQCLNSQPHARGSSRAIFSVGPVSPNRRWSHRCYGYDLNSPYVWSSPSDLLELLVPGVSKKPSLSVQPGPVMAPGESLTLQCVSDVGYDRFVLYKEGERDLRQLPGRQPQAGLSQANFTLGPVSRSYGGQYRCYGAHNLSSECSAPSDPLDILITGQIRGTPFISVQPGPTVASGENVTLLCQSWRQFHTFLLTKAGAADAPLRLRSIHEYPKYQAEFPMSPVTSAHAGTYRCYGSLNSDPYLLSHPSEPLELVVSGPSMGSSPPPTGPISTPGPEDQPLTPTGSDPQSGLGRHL
Description: (§1) FIG. 32. Binding of Clones 1-5 to selected LILR family members tested by multiple point ELISA. Recombinant LILRB1, LILRB2, LILRB3, LILRA1, LILRA3, LILRA4, and LILRA6, or irrelevant control protein were coated on the ELISA plates. The plates were then blocked with milk in PBST. Next, the plates were incubated with serial dilutions (12.5 nM to 0.02 nM) of Clones 1-5 (A-E). Bound antibodies were detected using HRP-conjugated anti-human Fc antibodies and the chromogenic substrate.
as §1, with “Binding of” for “FIG. 32. Binding of”, “point ELISA. (FIG. 32) Recombinant LILRB1,” for “point ELISA. Recombinant LILRB1,”, “LILRA3, LILRA4, LILRA6, or” for “LILRA3, LILRA4, and LILRA6, or”, “nM) of Clone 1-5 (A-E).” for “nM) of Clones 1-5 (A-E).”

Human LILRA1 ectodomain = biological target: T4, Human LILRA1 ectodomain (human, UniProt O75019 17-461); experiment: multi-point ELISA, antigen coated, apparent EC50
T4 construct: Recombinant protein from a commercial source
Description: as §1
as §1, with “Binding of” for “FIG. 32. Binding of”, “point ELISA. (FIG. 32) Recombinant LILRB1,” for “point ELISA. Recombinant LILRB1,”, “LILRA3, LILRA4, LILRA6, or” for “LILRA3, LILRA4, and LILRA6, or”, “nM) of Clone 1-5 (A-E).” for “nM) of Clones 1-5 (A-E).”

[5] = biological target: LILRA4 recombinant, full-length ectodomain (LILRA4 24-446) (human, UniProt P59901 24-446); experiment: multi-point ELISA, antigen coated, apparent EC50
Description: as §1
as §1, with “Binding of” for “FIG. 32. Binding of”, “point ELISA. (FIG. 32) Recombinant LILRB1,” for “point ELISA. Recombinant LILRB1,”, “LILRA3, LILRA4, LILRA6, or” for “LILRA3, LILRA4, and LILRA6, or”, “nM) of Clone 1-5 (A-E).” for “nM) of Clones 1-5 (A-E).”

[6] = biological target: LILRA6 recombinant, full-length ectodomain (LILRA6 24-447) (human, UniProt Q6PI73 24-447); experiment: multi-point ELISA, antigen coated, apparent EC50
Description: as §1
as §1, with “Binding of” for “FIG. 32. Binding of”, “point ELISA. (FIG. 32) Recombinant LILRB1,” for “point ELISA. Recombinant LILRB1,”, “LILRA3, LILRA4, LILRA6, or” for “LILRA3, LILRA4, and LILRA6, or”, “nM) of Clone 1-5 (A-E).” for “nM) of Clones 1-5 (A-E).”

[7] = biological target: LILRB3 recombinant, full-length ectodomain (LILRB3 24-443) (human, UniProt O75022 24-443); experiment: multi-point ELISA, antigen coated, apparent EC50
Description: as §1
as §1, with “Binding of” for “FIG. 32. Binding of”, “point ELISA. (FIG. 32) Recombinant LILRB1,” for “point ELISA. Recombinant LILRB1,”, “LILRA3, LILRA4, LILRA6, or” for “LILRA3, LILRA4, and LILRA6, or”, “nM) of Clone 1-5 (A-E).” for “nM) of Clones 1-5 (A-E).”

Human full length LILRA3 = biological target: T5, Human full length LILRA3 (human, UniProt Q8N6C8 24-439); experiment: multi-point ELISA, antigen coated, apparent EC50
T5 construct: Commercial recombinant protein; also the parent of the LILRA3 peptide microarrays
T5 sequence (Q8N6C8 24-439 A105V limits assumed): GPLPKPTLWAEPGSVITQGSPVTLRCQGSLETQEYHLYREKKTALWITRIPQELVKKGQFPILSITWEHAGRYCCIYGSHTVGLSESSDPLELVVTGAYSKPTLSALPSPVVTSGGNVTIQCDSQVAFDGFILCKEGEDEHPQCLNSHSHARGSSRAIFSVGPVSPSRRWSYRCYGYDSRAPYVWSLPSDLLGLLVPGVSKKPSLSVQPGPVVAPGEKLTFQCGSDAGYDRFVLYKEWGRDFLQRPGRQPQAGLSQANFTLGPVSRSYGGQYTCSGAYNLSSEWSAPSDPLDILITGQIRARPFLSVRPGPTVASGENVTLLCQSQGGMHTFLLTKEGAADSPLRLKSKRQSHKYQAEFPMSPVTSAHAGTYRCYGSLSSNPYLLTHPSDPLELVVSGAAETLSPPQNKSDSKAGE
Description: as §1
as §1, with “Binding of” for “FIG. 32. Binding of”, “point ELISA. (FIG. 32) Recombinant LILRB1,” for “point ELISA. Recombinant LILRB1,”, “LILRA3, LILRA4, LILRA6, or” for “LILRA3, LILRA4, and LILRA6, or”, “nM) of Clone 1-5 (A-E).” for “nM) of Clones 1-5 (A-E).”

[8] = biological target: LILRB1 recombinant, full-length ectodomain (human, UniProt Q8NHL6 24-461); experiment: multi-point ELISA, antigen coated, apparent EC50
Description: as §1
as §1, with “Binding of” for “FIG. 32. Binding of”, “point ELISA. (FIG. 32) Recombinant LILRB1,” for “point ELISA. Recombinant LILRB1,”, “LILRA3, LILRA4, LILRA6, or” for “LILRA3, LILRA4, and LILRA6, or”, “nM) of Clone 1-5 (A-E).” for “nM) of Clones 1-5 (A-E).”

Human LILRA2 ectodomain = biological target: T6, Human LILRA2 ectodomain (human, UniProt Q8N149 24-449); experiment: summary table (single point ELISA); N = No
T6 construct: Recombinant protein from a commercial source
T6 sequence (Q8N149 24-449 S135L): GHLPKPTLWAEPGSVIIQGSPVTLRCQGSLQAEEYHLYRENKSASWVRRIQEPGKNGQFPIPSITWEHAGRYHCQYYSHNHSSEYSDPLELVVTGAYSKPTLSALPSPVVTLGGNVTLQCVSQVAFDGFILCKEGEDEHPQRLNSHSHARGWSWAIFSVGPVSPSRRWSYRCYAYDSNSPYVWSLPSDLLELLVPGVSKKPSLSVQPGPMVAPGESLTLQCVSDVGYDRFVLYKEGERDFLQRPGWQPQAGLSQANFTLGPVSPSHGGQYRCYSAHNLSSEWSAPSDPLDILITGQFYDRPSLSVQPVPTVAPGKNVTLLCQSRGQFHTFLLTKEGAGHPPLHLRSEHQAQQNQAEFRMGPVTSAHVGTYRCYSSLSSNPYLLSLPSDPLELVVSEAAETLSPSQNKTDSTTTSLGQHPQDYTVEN

[9] = biological target: LILRB4 recombinant, full-length ectodomain (LILRB4 17-257) (human, UniProt Q8NHJ6 22-257); experiment: summary table (single point ELISA); N = No
[10] = biological target: LILRA5 recombinant, full-length ectodomain (LILRA5 42-268) (human, UniProt A6NI73 42-268); experiment: summary table (single point ELISA); N = No
Sequence of LILRA5 recombinant, full-length ectodomain (LILRA5 42-268) (A6NI73 42-268): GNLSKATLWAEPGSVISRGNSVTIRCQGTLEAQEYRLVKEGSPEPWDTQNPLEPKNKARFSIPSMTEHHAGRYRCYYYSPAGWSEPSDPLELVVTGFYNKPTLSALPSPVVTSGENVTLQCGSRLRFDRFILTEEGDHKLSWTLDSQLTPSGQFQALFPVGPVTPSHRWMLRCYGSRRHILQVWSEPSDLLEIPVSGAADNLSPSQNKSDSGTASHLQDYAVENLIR

[11] = biological target: LILRB5 recombinant, full-length ectodomain (LILRB5 18-456) (human, UniProt O75023 24-456); experiment: summary table (single point ELISA); N = No
Sequence of LILRB5 recombinant, full-length ectodomain (LILRB5 18-456) (O75023 24-456 limits assumed): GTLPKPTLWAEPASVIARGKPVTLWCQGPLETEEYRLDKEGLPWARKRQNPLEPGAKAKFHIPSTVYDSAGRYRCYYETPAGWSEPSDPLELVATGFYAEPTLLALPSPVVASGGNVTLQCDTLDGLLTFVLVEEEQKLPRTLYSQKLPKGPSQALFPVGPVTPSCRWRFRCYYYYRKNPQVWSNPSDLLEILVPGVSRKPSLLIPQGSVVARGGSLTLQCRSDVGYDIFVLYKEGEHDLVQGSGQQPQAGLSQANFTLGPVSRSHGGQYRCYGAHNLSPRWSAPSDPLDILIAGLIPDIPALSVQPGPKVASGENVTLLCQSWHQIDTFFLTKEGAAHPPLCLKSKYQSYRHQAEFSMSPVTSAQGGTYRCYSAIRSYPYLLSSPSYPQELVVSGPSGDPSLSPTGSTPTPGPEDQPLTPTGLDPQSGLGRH

[12] = biological target: T7, human LILRB1 ectodomain fused to mIgG2a Fc (human); experiment: summary table (ELISA); Y = Yes
T7 construct: also called human LILRB1-mIgG2a; full length LILRB1 ectodomain
T7 sequence (chain, as listed by the source limits assumed): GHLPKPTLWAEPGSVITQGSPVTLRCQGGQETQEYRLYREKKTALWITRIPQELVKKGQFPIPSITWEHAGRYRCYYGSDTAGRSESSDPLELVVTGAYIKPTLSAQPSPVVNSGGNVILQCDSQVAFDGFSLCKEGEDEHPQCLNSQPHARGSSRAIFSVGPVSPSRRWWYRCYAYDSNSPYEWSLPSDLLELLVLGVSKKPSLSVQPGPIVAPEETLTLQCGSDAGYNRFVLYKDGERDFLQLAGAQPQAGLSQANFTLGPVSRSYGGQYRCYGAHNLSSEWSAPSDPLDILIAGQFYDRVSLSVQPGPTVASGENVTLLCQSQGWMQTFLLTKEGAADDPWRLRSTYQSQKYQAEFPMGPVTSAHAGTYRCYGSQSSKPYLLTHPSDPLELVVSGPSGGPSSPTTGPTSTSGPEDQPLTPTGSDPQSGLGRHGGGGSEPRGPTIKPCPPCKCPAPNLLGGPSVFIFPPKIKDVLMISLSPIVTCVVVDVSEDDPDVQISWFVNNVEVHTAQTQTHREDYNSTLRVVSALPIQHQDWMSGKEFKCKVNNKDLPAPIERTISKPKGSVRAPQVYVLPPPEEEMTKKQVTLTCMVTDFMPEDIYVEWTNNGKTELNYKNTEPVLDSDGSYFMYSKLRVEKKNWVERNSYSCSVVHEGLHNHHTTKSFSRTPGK

[13] = biological target: T8, Human LILRB1(L68P/A93T) ectodomain fused to mIgG2aFc (human); experiment: ELISA, antigen coated, 10 nM antibody
T8 construct: The entry already carries the two substitutions
Description: (§2) FIG. 3. Mixed LILRB1 and LILRB2 expression in TAMs from melanoma cancer patients. Analysis of LILRB1 and LILRB2 detection in macrophages in pre- and post-anti-PD-1 and/or anti-CTLA-4 therapy treated melanoma patients (n=33) is shown using Smart-seq2 data from Sade-Feldman et al. https://pubmed.ncbi.nlm.nih.gov/30633907/FIG. 4. Binding to domains of human LILRB1. Plates were coated with recombinant full length LILRB1 ectodomain (SEQ ID NO: 41) or a protein comprising domain 1 and 2 of human LILRB1 protein (SEQ ID NO: 42), and then incubated with 10 nM Clones 1-5, Reference Ab 1, and Isotype control. The bound antibodies were detected using HRP-labeled secondary antibodies and the results were plotted on the graph as absorbance measured at 450 nm.
(§3) Binding to allelic forms of LILRB1. There are 4 major allelic variants of human LILRB1 protein ectodomain. The variants of LILRB1 were expressed as recombinant proteins comprising a modified LILRB1 ectodomain and mouse IgG2 Fc region (SEQ ID NO: 50 and 51) in suspension CHO cells, and purified by using techniques that were known in the art. These recombinant proteins were then used in the direct enzyme-linked immunosorbent assay (ELISA) to determine the antibodies potential to bind different allelic forms of LILRB1. In short, Maxisorp (Nunc) or similar immune-assay plates were coated with solutions of target proteins in PBS, at 4° C., overnight. Plates were then washed with PBS, blocked with 5% milk in PBS, and washed again. Test antibodies diluted in PBS were then added to the plates and incubated at room temperature for at least 1h. Plates were subsequently washed with PBS/0.05% Tween-20 (PBST) and incubated with a solution of horse radish peroxidase (HRP) labelled secondary antibodies at room temperature for at least 1 h. After washing with PBST and PBS, bound antibodies were detected using the 3,3′,5,5;-tetramethylbenzidine (TMB) chromogenic solution. After 5 to 10 minutes, the reaction was stopped with 1% sulphuric acid and absorbance read at 450 nm.
(§4) There are four major allelic variants within the ecto-domain of LILRB1 in human population [Human Molecular Genetics, 2005, Vol. 14, 2469-2480]; namely c.203T>C (L68P), c.277G>A (A93T), c.425T>C (I142T), and c.464G>T (S155I).

[14] = biological target: T9, Human LILRB1(I142T/S155I) ectodomain fused to mIgG2aFc (human); experiment: ELISA, antigen coated, 10 nM antibody
T9 construct: The entry already carries the two substitutions
Description: as §2, §3, §4

Human full length LILRB1 = biological target: T10, Human full length LILRB1 (human, UniProt Q8NHL6 24-650); experiment: flow cytometry, displacement of PE-labelled HLA-A2, HLA-E and HLA-G multimers from HEK293 cells overexpressing LILRB1
T10 construct: Over-expressed on HEK293 cells for flow cytometry; also called LILRB1 on HEK293 cells; cell membrane embedded LILRB1
T10 sequence (Q8NHL6 24-650 limits assumed): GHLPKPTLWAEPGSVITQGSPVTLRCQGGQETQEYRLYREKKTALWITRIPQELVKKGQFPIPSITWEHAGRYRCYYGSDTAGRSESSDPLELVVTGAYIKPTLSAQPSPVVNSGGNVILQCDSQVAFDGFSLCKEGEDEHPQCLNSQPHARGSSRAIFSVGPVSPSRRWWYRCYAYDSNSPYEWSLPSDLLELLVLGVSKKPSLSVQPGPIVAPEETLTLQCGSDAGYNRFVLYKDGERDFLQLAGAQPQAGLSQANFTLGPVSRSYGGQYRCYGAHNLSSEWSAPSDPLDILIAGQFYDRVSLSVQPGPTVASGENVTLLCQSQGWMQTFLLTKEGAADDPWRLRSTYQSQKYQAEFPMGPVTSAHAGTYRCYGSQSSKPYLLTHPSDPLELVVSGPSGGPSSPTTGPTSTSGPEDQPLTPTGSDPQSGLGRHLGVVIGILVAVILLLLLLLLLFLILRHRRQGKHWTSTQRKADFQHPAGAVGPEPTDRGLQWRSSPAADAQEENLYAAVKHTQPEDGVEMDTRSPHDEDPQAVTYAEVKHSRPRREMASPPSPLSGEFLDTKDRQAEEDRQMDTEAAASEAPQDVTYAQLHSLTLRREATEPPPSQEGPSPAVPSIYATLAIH
Description: (§5) To investigate if the Antibodies 1 to 5 could neutralize binding of other HLA-As to LILRB1 or to LILRB2, HEK293 cells overexpressing the receptors were incubated with constant concentrations of PE-labelled HLA-A2, HLA-E, and HLA-G multimers and increasing concentrations of Antibodies 1 to 5 or the reference antibodies. The ability to neutralize binding of HLA to the cells was determined by flow cytometry (FIG. 21). None of Antibodies 1 to 5 neutralized binding of HLA-A (A), HLA-E (B), and […] to LILRB1 protein, up to the concentrations of 100 nM, whereas Reference 1 antibody (LILRB1 specific) and Reference 3 antibody (LILRB1/2 specific) neutralized the binding with an IC₅₀ in the sub- or low-nM range. Similarly, none of Antibodies 1 to 5 neutralised efficiently the binding of HLA-A (E) and HLA-G (G). […] Reference Antibody 2 (LILRB2 specific) and Reference Antibody 3 (LILRB1/2 specific), inhibited the binding for all HLAs, with IC₅₀ with sub- or low-nM range.

Human full length LILRB2 = biological target: T11, Human full length LILRB2 (human, UniProt Q8N423 22-597); experiment: flow cytometry, displacement of PE-labelled HLA-A2, HLA-E and HLA-G multimers from HEK293 cells overexpressing LILRB2
T11 construct: Over-expressed on HEK293 cells for flow cytometry; Also used here as the parent protein of the D3-D4 peptide microarrays; also called LILRB2 on HEK293 cells
Description: as §5

T1 sequence (chain, as listed by the source limits assumed): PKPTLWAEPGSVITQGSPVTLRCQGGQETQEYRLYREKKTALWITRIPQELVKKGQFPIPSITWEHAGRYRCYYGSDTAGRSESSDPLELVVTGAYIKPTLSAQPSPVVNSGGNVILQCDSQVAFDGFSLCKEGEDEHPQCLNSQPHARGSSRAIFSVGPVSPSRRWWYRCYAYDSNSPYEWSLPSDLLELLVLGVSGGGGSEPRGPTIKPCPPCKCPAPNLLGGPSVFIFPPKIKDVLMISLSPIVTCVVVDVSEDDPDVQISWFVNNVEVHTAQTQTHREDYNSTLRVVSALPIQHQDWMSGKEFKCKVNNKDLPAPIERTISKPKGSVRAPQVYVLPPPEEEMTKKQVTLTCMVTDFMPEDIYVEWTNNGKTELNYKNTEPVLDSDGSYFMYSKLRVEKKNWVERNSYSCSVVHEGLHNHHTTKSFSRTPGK

binding result [1]: no binding
binding result [2]: binds
binding result [3]: binds
EC50 [4]: 740 pM
EC50 (Human LILRA1 ectodomain): 8370 pM
EC50 [5]: 620 pM
EC50 [6]: 920 pM
EC50 [7]: 690 pM
EC50 (Human full length LILRA3): 840 pM
EC50 [8]: 780 pM
binding result (Human LILRA2 ectodomain): no binding (tested: 1 nM)
binding result [9]: no binding (tested: 1 nM)
binding result [10]: no binding (tested: 1 nM)
binding result [11]: no binding (tested: 1 nM)
binding result [12]: binds
binding result [13]: binds
binding result [14]: binds
B1: Antibody 2 (antibody, V domains shown)
VH: QVQLVESGGDLVKPGGSLRLSCAASGFTFRDYYMSWIRQAPGKGLEWVSYISPSGSTIFYADSVKGRFTISRDNAKNSLYLQMNSLRAEDTAVYYCAKDRVRLFDYWGQGTLVTVSS
VL: EIVLTQSPATLSLSPGERATLSCRASQSVSSSYLAWYQQKPGQAPRLLIYGASTRATGIPARFSGSGSGTDFTLTISRLEPEDFAVYYCQQRSNWPITFGQGTRLEIK
notes: Fully human antibody; IgG1 and IgG1 LALA variants also made for functional assays; also called Clone 2; Antibody Clone 2

binding result (Human full length LILRB1): binds
binding result (Human full length LILRB2): binds
B2: Reference Antibody 3 (anti-human LILRB1 and LILRB2 Ab) (antibody, V domains shown)
VH: QVQLVQSGAEVKKPGASVKVSCKASGYTFTDYYINWVRQAPGQGLEWMGNVNPNDGGTTYNQKFKGRVTMTTDTSTSTAYMELRSLRSDDTAVYYCARREIYFYGTIYYYAMDYWGQGTLVTVSS
VL: DIQLTQSPSFLSASVGDRVTITCRASESVDYYGNSFMYWYQQKPGKAPKLLIYFASNLESGVPSRFSGSGSGTEFTLTISSLQPEDFATYYCQQNNEDPWTFGGGTKVEIK
